From PMC9935549, “Mechanisms of the RNA helicases DDX42 and DDX46 in human U2 snRNP assembly” (Nature Communications, 2023) come the findings set out here.

The experiment concerns the target T1, SF3b core complex, 6xHis-tagged (SF3B1 454–1304, 6xHis-SF3B3, SF3B5, PHF5A) (human, UniProt O75533 454-1304; Q15393 1-1217; Q9BWJ5 1-86; Q7RTV0 1-110).
T1 construct: SF3B1, human, residues 454-1304; SF3B3, human, full-length cDNA; SF3B5, human, full-length cDNA; PHF5A, human, full-length cDNA; the 6xHis tag replaces the N-terminal Twin-Strep tag of SF3B3, so it is probably N-terminal; also called SF3b core (6xHis-tagged); source: HEK293F, co-transfected, purified; prepared as the SF3b core except that the Strep-tag on SF3B3 was replaced by a 6xHis tag; …
Description: BLI; 6xHis-tagged SF3b core (20 µg/mL) captured on Ni-NTA biosensors; Flag-DDX42 or Flag-DDX46 as analyte; lysis buffer (20 mM HEPES-KOH pH 7.9, 150 mM NaCl, 1.5 mM MgCl2, 0.05% NP-40); about 100 s association, 100 s dissociation; 1:1 model; apparent constants. The conditions noted are these: both partners purified.

T1 sequence (O75533 454-1304, chain 1 of 4): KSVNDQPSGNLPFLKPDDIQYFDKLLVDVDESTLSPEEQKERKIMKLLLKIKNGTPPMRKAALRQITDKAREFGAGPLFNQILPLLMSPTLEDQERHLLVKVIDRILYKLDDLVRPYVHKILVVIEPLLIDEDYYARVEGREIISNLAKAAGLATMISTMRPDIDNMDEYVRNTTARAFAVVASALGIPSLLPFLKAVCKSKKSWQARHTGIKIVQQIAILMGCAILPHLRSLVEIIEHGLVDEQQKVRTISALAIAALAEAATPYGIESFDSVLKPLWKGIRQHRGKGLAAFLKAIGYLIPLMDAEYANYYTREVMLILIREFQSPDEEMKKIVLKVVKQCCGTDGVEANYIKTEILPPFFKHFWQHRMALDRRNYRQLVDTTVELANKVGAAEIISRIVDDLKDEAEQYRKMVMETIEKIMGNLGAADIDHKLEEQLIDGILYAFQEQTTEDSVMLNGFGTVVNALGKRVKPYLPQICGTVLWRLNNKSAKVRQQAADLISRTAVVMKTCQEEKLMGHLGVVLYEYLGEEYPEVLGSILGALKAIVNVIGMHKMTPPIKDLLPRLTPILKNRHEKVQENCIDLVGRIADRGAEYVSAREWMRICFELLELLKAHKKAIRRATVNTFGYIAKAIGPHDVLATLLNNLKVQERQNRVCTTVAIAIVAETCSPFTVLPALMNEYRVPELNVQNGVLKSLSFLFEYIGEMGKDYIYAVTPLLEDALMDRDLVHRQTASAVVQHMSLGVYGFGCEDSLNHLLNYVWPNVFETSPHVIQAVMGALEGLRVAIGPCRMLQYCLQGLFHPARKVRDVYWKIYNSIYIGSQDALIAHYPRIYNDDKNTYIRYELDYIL
T1 sequence (Q15393 whole entry, chain 2 of 4, the tested form may be a part): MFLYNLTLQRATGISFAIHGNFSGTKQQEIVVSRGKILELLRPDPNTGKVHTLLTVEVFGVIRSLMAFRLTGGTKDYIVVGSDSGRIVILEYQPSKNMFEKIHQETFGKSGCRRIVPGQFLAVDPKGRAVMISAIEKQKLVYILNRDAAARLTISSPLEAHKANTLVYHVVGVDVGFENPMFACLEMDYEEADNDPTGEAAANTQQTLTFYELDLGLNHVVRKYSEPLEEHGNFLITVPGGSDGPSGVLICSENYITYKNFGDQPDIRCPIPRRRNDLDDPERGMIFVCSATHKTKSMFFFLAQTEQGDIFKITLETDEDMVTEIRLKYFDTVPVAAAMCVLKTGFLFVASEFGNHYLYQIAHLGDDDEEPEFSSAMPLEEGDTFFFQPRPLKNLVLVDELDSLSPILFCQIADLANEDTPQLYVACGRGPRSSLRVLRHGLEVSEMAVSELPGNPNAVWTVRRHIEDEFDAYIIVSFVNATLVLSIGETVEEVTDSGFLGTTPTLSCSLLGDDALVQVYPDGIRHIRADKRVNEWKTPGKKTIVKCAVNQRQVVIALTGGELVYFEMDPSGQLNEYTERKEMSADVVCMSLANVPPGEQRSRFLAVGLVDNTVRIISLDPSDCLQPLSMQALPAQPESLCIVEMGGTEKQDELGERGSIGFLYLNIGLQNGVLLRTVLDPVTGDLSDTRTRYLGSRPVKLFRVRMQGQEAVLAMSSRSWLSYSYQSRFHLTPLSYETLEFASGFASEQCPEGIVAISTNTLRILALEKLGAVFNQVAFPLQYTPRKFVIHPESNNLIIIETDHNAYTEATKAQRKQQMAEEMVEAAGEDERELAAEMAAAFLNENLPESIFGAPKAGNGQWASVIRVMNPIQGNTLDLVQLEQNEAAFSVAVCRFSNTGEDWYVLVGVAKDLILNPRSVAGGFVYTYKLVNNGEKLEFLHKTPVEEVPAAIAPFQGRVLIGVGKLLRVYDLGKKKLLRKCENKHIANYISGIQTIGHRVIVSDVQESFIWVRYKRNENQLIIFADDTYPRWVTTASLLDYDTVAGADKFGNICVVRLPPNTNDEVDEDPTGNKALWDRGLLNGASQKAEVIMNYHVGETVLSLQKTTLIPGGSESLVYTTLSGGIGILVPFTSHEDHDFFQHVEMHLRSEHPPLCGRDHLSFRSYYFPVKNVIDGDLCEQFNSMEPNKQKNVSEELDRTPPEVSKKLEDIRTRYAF
T1 sequence (Q9BWJ5 whole entry, chain 3 of 4, the tested form may be a part): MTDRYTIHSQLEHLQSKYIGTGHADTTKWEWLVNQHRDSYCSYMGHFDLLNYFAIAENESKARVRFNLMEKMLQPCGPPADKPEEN
T1 sequence (Q7RTV0 whole entry, chain 4 of 4, the tested form may be a part): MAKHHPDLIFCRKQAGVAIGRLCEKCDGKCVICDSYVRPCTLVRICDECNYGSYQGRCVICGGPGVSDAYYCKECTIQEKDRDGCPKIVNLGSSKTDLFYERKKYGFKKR

B1: Flag-DDX46 (natural protein)
chain: MGRESRHYRKRSASRGRSGSRSRSRSPSDKRSKRGDDRRSRSRDRDRRRERSRSRDKRRSRSRDRKRLRRSRSRERDRSRERRRSRSRDRRRSRSRSRGRRSRSSSPGNKSKKTENRSRSKEKTDGGESSKEKKKDKDDKEDEKEKDAGNFDQNKLEEEMRKRKERVEKWREEQRKKAMENIGELKKEIEEMKQGKKWSLEDDDDDEDDPAEAEKEGNEMEGEELDPLDAYMEEVKEEVKKFNMRSVKGGGGNEKKSGPTVTKVVTVVTTKKAVVDSDKKKGELMENDQDAMEYSSEEEEVDLQTALTGYQTKQRKLLEPVDHGKIEYEPFRKNFYVEVPELAKMSQEEVNVFRLEMEGITVKGKGCPKPIKSWVQCGISMKILNSLKKHGYEKPTPIQTQAIPAIMSGRDLIGIAKTGSGKTIAFLLPMFRHIMDQRSLEEGEGPIAVIMTPTRELALQITKECKKFSKTLGLRVVCVYGGTGISEQIAELKRGAEIIVCTPGRMIDMLAANSGRVTNLRRVTYVVLDEADRMFDMGFEPQVMRIVDNVRPDRQTVMFSATFPRAMEALARRILSKPIEVQVGGRSVVCSDVEQQVIVIEEEKKFLKLLELLGHYQESGSVIIFVDKQEHADGLLKDLMRASYPCMSLHGGIDQYDRDSIINDFKNGTCKLLVATSVAARGLDVKHLILVVNYSCPNHYEDYVHRAGRTGRAGNKGYAYTFITEDQARYAGDIIKALELSGTAVPPDLEKLWSDFKDQQKAEGKIIKKSSGFSGKGFKFDETEQALANERKKLQKAALGLQDSDDEDAAVDIDEQIESMFNSKKRVKDMAAPGTSSVPAPTAGNAEKLEIAKRLALRINAQKNLGIESQDVMQQATNAILRGGTILAPTVSAKTIAEQLAEKINAKLNYVPLEKQEEERQDGGQNESFKRYEEELEINDFPQTARWKVTSKEALQRISEYSEAAITIRGTYFPPGKEPKEGERKIYLAIESANELAVQKAKAEITRLIKEELIRLQNSYQPTNKGRYKVL
notes: DDX46, human; source: HEK293F, overexpressed, purified (anti-Flag M2, Hitrap Heparin)
As to B1, the Kd was 66 nM.

B2: Flag-DDX42 (full-length) (natural protein)
chain: MNWNKGGPGTKRGFGFGGFAISAGKKEEPKLPQQSHSAFGATSSSSGFGKSAPPQLPSFYKIGSKRANFDEENAYFEDEEEDSSNVDLPYIPAENSPTRQQFHSKPVDSDSDDDPLEAFMAEVEDQAARDMKRLEEKDKERKNVKGIRDDIEEEDDQEAYFRYMAENPTAGVVQEEEEDNLEYDSDGNPIAPTKKIIDPLPPIDHSEIDYPPFEKNFYNEHEEITNLTPQQLIDLRHKLNLRVSGAAPPRPGSSFAHFGFDEQLMHQIRKSEYTQPTPIQCQGVPVALSGRDMIGIAKTGSGKTAAFIWPMLIHIMDQKELEPGDGPIAVIVCPTRELCQQIHAECKRFGKAYNLRSVAVYGGGSMWEQAKALQEGAEIVVCTPGRLIDHVKKKATNLQRVSYLVFDEADRMFDMGFEYQVRSIASHVRPDRQTLLFSATFRKKIEKLARDILIDPIRVVQGDIGEANEDVTQIVEILHSGPSKWNWLTRRLVEFTSSGSVLLFVTKKANAEELANNLKQEGHNLGLLHGDMDQSERNKVISDFKKKDIPVLVATDVAARGLDIPSIKTVINYDVARDIDTHTHRIGRTGRAGEKGVAYTLLTPKDSNFAGDLVRNLEGANQHVSKELLDLAMQNAWFRKSRFKGGKGKKLNIGGGGLGYRERPGLGSENMDRGNNNVMSNYEAYKPSTGAMGDRLTAMKAAFQSQYKSHFVAASLSNQKAGSSAAGASGWTSAGSLNSVPTNSAQQGHNSPDSPVTSAAKGIPGFGNTGNISGAPVTYPSAGAQGVNNTASGNNSREGTGGSNGKRERYTENRGSSRHSHGETGNRHSDSPRHGDGGRHGDGYRHPESSSRHTDGHRHGENRHGGSAGRHGENRGANDGRNGESRKEAFNRESKMEPKMEPKVDSSKMDKVDSKTDKTADGFAVPEPPKRKKSRWDS
notes: DDX42, human, full-length cDNA; N-plug residues 69-81, helix alpha-3 114-135, helices alpha-2/alpha-1 145-167, helicase domain 207-643; source: HEK293F, transfected (pCAG): co-expressed with the SF3b core; alone as bait in lysate; not shown: Flag, N-terminal, kept
As to B2, the Kd is 23 nM.
